{
  "source": "patent US20140187758A1",
  "key": {"[1]": {"biological_target": "European Corn Borer-aminopeptidase 1 (Ostrinia nubilalis)"}, "[2]": {"biological_target": "European Corn Borer-cadherin (Ostrinia nubilalis)"}},
  "data": [
    {"substance": "Cry1Ac core toxin (trypsin-cleaved Cry1Ac holotoxin) (from UniProt P05068 29-623) (ligand)", "values": [
      {"measurement": "Kd", "setting": "[1]", "value": 107, "unit": "nM"},
      {"measurement": "Kd", "setting": "[2]", "value": 48, "unit": "nM"}
    ]}
  ]
}
